Experiments:
purified protein [1] = substrate: NCCCC(=O)O; test: purified protein; settings: coupled with GabD (rate-limiting dehydrogenase), 5 mM α-ketoglutarate, 500 µM NADP+, pH 8.0, room temperature
purified protein [2] = substrate: NCCCCC(=O)O; test: purified protein; assay type: biochemical, Escherichia coli; settings: coupled with GabD (rate-limiting dehydrogenase), 5 mM α-ketoglutarate, 500 µM NADP+, pH 8.0, room temperature
[3] = substrate: O=C(O)CCCC(=O)O; test: O2 consumption, Clark electrode; assay type: biochemical, Escherichia coli; settings: 1 mM α-ketoglutarate, 4 µM Fe(NH4)2SO4, 400 µM ascorbate, MOPS pH 7.2, 30 °C
[4] = substrate: O=C(O)CCC(=O)C(=O)O; test: O2 consumption, Clark electrode; assay type: biochemical, Escherichia coli; settings: 5 mM glutarate, 4 µM Fe(NH4)2SO4, 400 µM ascorbate, MOPS pH 7.2, 30 °C
purified protein [5] = substrate: NCCCCN; test: purified protein; assay type: biochemical, Escherichia coli; settings: coupled with PatD (rate-limiting dehydrogenase), 5 mM α-ketoglutarate, 500 µM NAD+, pH 8.0, room temperature
purified protein [6] = substrate: NCCCCCN; test: purified protein; assay type: biochemical, Escherichia coli; settings: coupled with PatD (rate-limiting dehydrogenase), 5 mM α-ketoglutarate, 500 µM NAD+, pH 8.0, room temperature

B1: GabT (Escherichia coli K-12) (protein)
chain: MNSNKELMQRRSQAIPRGVGQIHPIFADRAENCRVWDVEGREYLDFAGGIAVLNTGHLHPKVVAAVEAQLKKLSHTCFQVLAYEPYLELCEIMNQKVPGDFAKKTLLVTTGSEAVENAVKIARAATKRSGTIAFSGAYHGRTHYTLALTGKVNPYSAGMGLMPGHVYRALYPCPLHGISEDDAIASIHRIFKNDAAPEDIAAIVIEPVQGEGGFYASSPAFMQRLRALCDEHGIMLIADEVQSGAGRTGTLFAMEQMGVAPDLTTFAKSIAGGFPLAGVTGRAEVMDAVAPGGLGGTYAGNPIACVAALEVLKVFEQENLLQKANDLGQKLKDGLLAIAEKHPEIGDVRGLGAMIAIELFEDGDHNKPDAKLTAEIVARARDKGLILLSCGPYYNVLRILVPLTIEDAQIRQGLEIISQCFDEAKQ
notes: full ORF, N-terminal 6xHis tag (pET28a), expressed in E. coli BL21(DE3); assayed coupled with GabD
With B1 the Km (purified protein [1]) was 197 ± 27 µM and the Km (purified protein [2]) was 439 ± 29 µM.

B2: CsiD (Escherichia coli K-12) (protein)
chain: MNALTAVQNNAVDSGQDYSGFTLTPSAQSPRLLELTFTEQTTKQFLEQVAEWPVQALEYKSFLRFRVAKILDDLCANQLQPLLLKTLLNRAEGALLINAVGVDDVKQADEMVKLATAVAHLIGRSNFDAMSGQYYARFVVKNVDNSDSYLRQPHRVMELHNDGTYVEEITDYVLMMKIDEQNMQGGNSLLLHLDDWEHLDNYFRHPLARRPMRFAAPPSKNVSKDVFHPVFDVDQQGRPVMRYIDQFVQPKDFEEGVWLSELSDAIETSKGILSVPVPVGKFLLINNLFWLHGRDRFTPHPDLRRELMRQRGYFAYASNHYQTHQ
notes: full ORF, N-terminal 6xHis tag (pET28a), expressed in E. coli BL21(DE3); Fe(II); homotetramer
Work on B2 yielded a Km [3] of 650 ± 20 µM and a Km [4] of 100 ± 7 µM.

B3: PatA (Escherichia coli K-12) (protein)
chain: MNRLPSSASALACSAHALNLIEKRTLDHEEMKALNREVIEYFKEHVNPGFLEYRKSVTAGGDYGAVEWQAGSLNTLVDTQGQEFIDCLGGFGIFNVGHRNPVVVSAVQNQLAKQPLHSQELLDPLRAMLAKTLAALTPGKLKYSFFCNSGTESVEAALKLAKAYQSPRGKFTFIATSGAFHGKSLGALSATAKSTFRKPFMPLLPGFRHVPFGNIEAMRTALNECKKTGDDVAAVILEPIQGEGGVILPPPGYLTAVRKLCDEFGALMILDEVQTGMGRTGKMFACEHENVQPDILCLAKALGGGVMPIGATIATEEVFSVLFDNPFLHTTTFGGNPLACAAALATINVLLEQNLPAQAEQKGDMLLDGFRQLAREYPDLVQEARGKGMLMAIEFVDNEIGYNFASEMFRQRVLVAGTLNNAKTIRIEPPLTLTIEQCELVIKAARKALAAMRVSVEEA
notes: purified enzyme, cloning not described in main text; assayed coupled with PatD
In the case of B3, the Km (purified protein [5]) is reported as 1430 ± 70 µM and the Km (purified protein [6]) is reported as 370 ± 50 µM.
